Laboratory results reported in the Human Domainome abundance scans (Beltran et al. 2025).
± gives the uncertainty stated by the source.

B1: TOX high mobility group box family member 3, residues 256 to 323; numbered along this chain, O15405 (parent)
chain: QKPVSAYALFFRDTQAAIKGQNPNATFGEVSKIVASMWDSLGEEQKQVYKRKTEAAKKEYLKALAAYR

Variants of: B1
Assay: abundance fitness (aPCA) (normalised: wild type 0, dead -1); higher = more abundant; growth selection in yeast, the domain comes from the species named
Conditions: Homo sapiens

Abundance fitness, by site and new letter:
G28: M -0.179 ± 0.063
S40: V -0.167 ± 0.058 | Y -0.295 ± 0.094 | L -0.258 ± 0.055 | I 0.435 ± 0.11 | H -0.092 ± 0.12 | G 0.009 ± 0.052 | N 0.005 ± 0.1 | W -0.838 ± 0.15 | Q 0.003 ± 0.069 | M -0.164 ± 0.078 | T 0.099 ± 0.061 | E 0.01 ± 0.042 | R -0.004 ± 0.05 | A 0.005 ± 0.062 | P -1.01 ± 0.16 | D -0.223 ± 0.11 | C -0.338 ± 0.15
I33: M 0.101 ± 0.071 | F -0.5 ± 0.25 | A -0.104 ± 0.05 | R -0.134 ± 0.054 | V -0.159 ± 0.052 | G -0.402 ± 0.067 | Q -0.122 ± 0.092 | Y -0.174 ± 0.11 | D -0.771 ± 0.18 | K -0.01 ± 0.081 | N -0.329 ± 0.094 | T 0.021 ± 0.061 | P -1.01 ± 0.12 | L -0.016 ± 0.047 | H -0.324 ± 0.1 | S -0.267 ± 0.05 | C -0.324 ± 0.089 | E -0.131 ± 0.067 | W -0.507 ± 0.1
E44: R -0.359 ± 0.07 | S -0.101 ± 0.05 | F -0.541 ± 0.061 | T -0.072 ± 0.076 | C 0.023 ± 0.18 | I -0.613 ± 0.19 | M -0.493 ± 0.096 | Y -0.955 ± 0.25 | L -0.556 ± 0.062 | K 0.066 ± 0.099 | A -0.116 ± 0.051 | N -0.11 ± 0.13 | G -0.17 ± 0.06 | W -0.515 ± 0.073 | V -0.209 ± 0.046 | D 0.069 ± 0.067
K32: Y -0.662 ± 0.14 | L -0.376 ± 0.054 | C -0.289 ± 0.072 | H -0.286 ± 0.075 | P -0.966 ± 0.16 | A -0.048 ± 0.058 | E -0.167 ± 0.064 | I -0.416 ± 0.14 | M -0.198 ± 0.069 | N 0.214 ± 0.21 | Q -0.337 ± 0.097 | S -0.107 ± 0.053 | D -0.078 ± 0.075 | W -0.455 ± 0.14 | R -0.045 ± 0.057 | T -0.055 ± 0.065
W38: E -0.653 ± 0.12 | I -1.2 ± 0.42 | M -0.416 ± 0.098 | C -0.743 ± 0.11 | P -1.03 ± 0.22 | K -0.799 ± 0.16 | D -0.789 ± 0.21 | N -0.843 ± 0.26 | S -0.863 ± 0.098 | F -0.716 ± 0.2 | T -1.28 ± 0.37 | G -0.855 ± 0.12 | H -0.727 ± 0.45 | V -1.07 ± 0.14 | R -0.918 ± 0.12 | Y -0.206 ± 0.14
M37: D -0.488 ± 0.16 | S -0.265 ± 0.056 | F -0.427 ± 0.13 | A -0.063 ± 0.071 | T -0.036 ± 0.075 | K 0.037 ± 0.065 | E -0.104 ± 0.065 | L -0.219 ± 0.047 | I -0.422 ± 0.13 | V -0.317 ± 0.064 | R 0.013 ± 0.042 | W -0.874 ± 0.12 | N -0.114 ± 0.13 | G -0.486 ± 0.067 | H -0.227 ± 0.085 | C -0.186 ± 0.084 | Y -0.826 ± 0.32
Q45: E 0.092 ± 0.13 | F -0.339 ± 0.091 | I -0.479 ± 0.1 | C -0.486 ± 0.087 | G -0.17 ± 0.055 | A -0.154 ± 0.075 | H 0.098 ± 0.14 | D 0.132 ± 0.16 | L -0.433 ± 0.06 | K 0.037 ± 0.088 | N -0.232 ± 0.16 | M -0.431 ± 0.098
E29: R -0.558 ± 0.068 | V -0.618 ± 0.099 | M -0.564 ± 0.12 | P -0.802 ± 0.18 | L -0.832 ± 0.099 | W -0.158 ± 0.17 | Y -0.372 ± 0.095 | S -0.341 ± 0.067 | N -0.543 ± 0.12 | C -0.643 ± 0.1 | T -0.495 ± 0.077 | F -0.431 ± 0.14 | K -0.534 ± 0.15 | A -0.326 ± 0.09 | H -0.501 ± 0.082 | D -0.174 ± 0.087 | G -0.959 ± 0.22
A35: T -0.066 ± 0.08 | E -0.015 ± 0.078 | C -0.275 ± 0.088 | I -0.123 ± 0.12 | S -0.037 ± 0.05 | F -0.375 ± 0.11 | Y -0.197 ± 0.13 | L -0.289 ± 0.068 | W -0.16 ± 0.076 | G -0.122 ± 0.056 | R 0.12 ± 0.048 | V -0.727 ± 0.19 | D -0.275 ± 0.12 | Q -0.01 ± 0.071 | P -0.826 ± 0.12 | H 0.001 ± 0.1 | M -0.22 ± 0.09 | K -0.024 ± 0.13
T26: R -0.266 ± 0.049 | H -0.161 ± 0.13 | D 0.043 ± 0.085 | Y -0.957 ± 0.26 | N 0.03 ± 0.079 | C -0.275 ± 0.064 | M -0.862 ± 0.11 | Q -0.217 ± 0.071 | S 0.051 ± 0.055 | P -0.332 ± 0.071 | V -0.845 ± 0.11 | W -0.811 ± 0.14 | A -0.25 ± 0.068 | G -0.208 ± 0.065 | L -0.544 ± 0.068 | I -1.01 ± 0.23
A25: Y -0.058 ± 0.071 | W -0.492 ± 0.26
